We go through two molecules from CN112552399A (HENGYI BIOMEDICAL TECH SHANGHAI CO LTD, dated 2021).

This assay addresses T1, SARS-CoV-2 S1亚基 (SARS-CoV-2, UniProt P0DTC2 16-685).
T1 construct: also called S1蛋白
As to the kind of experiment: ELISA, coated S1, antibody detected with HRP goat anti-human IgG. On the technique in general: ELISA stands for enzyme-linked immunosorbent assay.

B1: 抗体37G2 (antibody, V domains shown)
VH: QVQLVQSGAEVKKPGSSVKVSCKASGGTFSSYAITWVRQAPGQGLEWMGGIIPIFGTANFAQKFQGRVTITADESTSTAYMELSSLRSEDTAVYYCAHLGGFADPFDYWGQGTLVTVSS
VL: EIVLTQSPATLSLSPGERATLSCRASQSVSNYLAWYQQKAGQAPRVLIYDAFNRATGIPARFSGSGSGTDFTLTISSLEPEDFAVYYCQQRSNWPPRITFGQGTRLEIK
B1: the binding result is recorded as “no binding (tested: 1 μg/mL)”.

B2: 抗体31C2 (antibody, V domains shown)
VH: QVQLVQSGAEVKKPGSSVKVSCKASGGTFSSYAISWVRQAPGQGLEWMGGIIPIFGTTNYAQKFQGRVTITADESTSTAYMELNSLRSEDTAVYYCAGRSAYGDKGYYFDYWGQGTLVTVSS
VL: EIVLTQSPATLSLSPGERATLSCRASQSVSNFLAWYQQKPGQAPRLLIYDASNRATGIPARFSGSGSGTDFTLTISSLQPEDFAVYYCQQRSNWPPQETFGQGTKVEIK
Turning to B2, the binding result is listed as “no binding (tested: 1 μg/mL)”.
